# According to PMC9400494:
# Assays:
# Experiment in all cases: fluorescence polarization
# [1] = system: nsp8 (SARS-CoV-2 (Wuhan-1 strain))
# [2] = system: nsp12 RdRP (SARS-CoV-2 (Wuhan-1 strain))
# [3] = system: nsp8L7 (nsp8-GSGSGS-nsp7 fusion) (SARS-CoV-2 (Wuhan-1 strain))
# [4] = system: nsp7 (SARS-CoV-2 (Wuhan-1 strain))
substance,measurement,setting,value
FP primer-template RNA hairpin,Kd,[1],200 nM
same,Kd,[2],200 nM
same,Kd,[3],200 nM
same,Kd,[4],7000 nM
